Measurements as given in paper PMC3573685.
Like-named read-outs stand apart in the source and are kept apart here.

Key:
[1] = biological target: Aquifex aeolicus TatC (Aquifex aeolicus)
[2] = biological target: Aquifex aeolicus TatC (Aquifex aeolicus); experiment: ITC

Sequence of Tat signal peptide of the E. coli protein SufI (P26648 1-27 limits assumed): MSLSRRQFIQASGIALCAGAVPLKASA

stoichiometry N [1]	Kd [2] [nM]	stoichiometry N [2]	Substance
2	–	–	Aquifex aeolicus TatC (natural protein)
–	3000	1	Tat signal peptide of the E. coli protein SufI
